According to patent US11142588B2, “Polypeptides which bind C-X-C chemokine receptor type 4 (CXCR4) and methods of treating or reducing the risk of fibrosis and cancer” (AdAlta Limited, priority 2015, dated 2021):
Residue numbers refer to the chain shown, from its start. Several values for one entry are separate records, joined by “and”; a condition that tells them apart may be missing. Equal entries are not always repeated.

Experiments:
[1] = cited from earlier work; for bleomycin induced pulmonary fibrosis: Xu et al 2007
Ramos tumor cells = experiment: Apoptosis assay (annexin V / propidium iodide flow cytometry); type: cell-based, human; conditions: annexin V and propidium iodide double positive, 24 or 72 hours
Protocol: The ability of an i-body of the invention to induce apoptosis in Ramos tumor cells (a human Burkitt's lymphoma cell line) was examined in an apoptosis assay according to the methods as described in Mishra M et al (2011) J Cell Mol Med 15(11):2462-77. I-bodies were incubated with Ramos cells and examined by flow cytometry after 24 or 72 hours. The cells were stained for annexin V and propidium iodide which are classic markers for apoptosis. Cells which were double positive were assessed to have become apoptotic.

CXCR4 = CXCR4 (Homo sapiens, UniProt P61073); experiment: β-arrestin BRET assay, antagonist mode with 100 nM SDF-1; type: cell-based; set-up: expressed in transfected cells; host or cells: HEK293FT; conditions: for β-arrestin activity: various concentrations; for IC50 in β-Arrestin BRET assay (Antagonist mode in the presence of 100 nM SDF-1): only an order of magnitude is printed in the cell
Text: (FIGS. 3A-3F and 14) BRET was used in this study to assess the real-time kinetic profiles resulting from any consequent increase in proximity, building upon the previously validated monitoring of GPCR/β-arrestin interactions utilizing BRET. BRET occurs between a complementary Renilla luciferase (Rluc) variant as donor and green fluorescent protein variant as acceptor. Upon Rluc-catalyzed oxidation of the coelenterazine substrate (such as coelenterazine h for first generation BRET (BRET) or EnduRen for extended BRET (eBRET), energy is transferred to the acceptor if within 10 nm, resulting in acceptor light emission peaking at a characteristic wavelength. BRET (3-arrestin assays were carried out as described previously (See, H. B., Seeber, R. M., Kocan, M., Eidne, K. A. and Pfleger, K. D. (2011) ‘Application of G protein-coupled receptor-heteromer identification technology to monitor beta-arrestin recruitment to G protein-coupled receptor heteromers’, Assay Drug Dev Technol, 9(1), 21-30, 10.1089/adt.2010.0336). CXCR4/Rluc8 cDNA constructs were generated from plasmids containing the respective receptor cDNA tagged with Rluc kindly provided by Aron Chakera (Oxford University, United Kingdom). The β-arrestin 2/Venus cDNA construct was prepared previously from pCS2-Venus kindly provided by Atsushi Miyawaki (RIKEN Brain Science Institute, Wako-city, Japan). BRET technology in cells transiently expressing CXCR4/Rluc8 and β-arrestin2/Venus in the presence of 100 nM SDF-1 agonist was evaluated in the presence of the CXCR4 agonist SDF-1/CXCL12 and the i-bodies. HEK293FT cells were maintained at 37° C., 5% CO2 in Complete Media (Dulbecco's modified Eagle's medium containing 0.3 mg/mL glutamine, 100 IU/mL penicillin, and […] streptomycin; Gibco) supplemented with 10% fetal calf serum (FCS) and […] Geneticin (Gibco). Transfections were carried out 24 h after seeding using Genejuice (Novagen) according to manufacturer's instructions. Cells were harvested with 0.05% Trypsin-EDTA (Gibco). HEK293FT cells were transfected using FuGene6 (Promega). 5 μM coelenterazine h (Promega) in HBSS was used as the luciferase substrate solution. Cells were harvested 24 h post-transfection in HEPES-buffered phenol red-free Complete Medium containing 5% FCS and added to a poly-L-lysine-coated white 96-well plate (Nunc). Dose-response curves were generated using BRET, with medium in the plate being replaced with PBS containing […] coelenterazine h (Molecular Probes) and assays carried out immediately. For these assays, 48 h post-transfection, the plate was incubated at […], 5% CO2 for 2 h with […] EnduRen (Promega) to ensure substrate equilibrium was reached. All BRET measurements were taken at 37° C. using the VICTOR Light plate reader with Wallac 1420 software (PerkinElmer). Filtered light emissions were sequentially measured at 400-475 and 520-540 nm. The BRET signal was calculated by subtracting the ratio of 520-540 nm emission over 400-475 nm emission for a vehicle-treated cell sample from the same ratio for a second aliquot of the same cells treated with agonist (in this instance in the presence of SDF-1 or CXCL12) and i-body (ADCX-99, ADCX-272, ACDX-6, ACDX-306, ADCX-668) at various concentrations. Data are mean±S.E.M. of four independent experiments carried out in duplicate.
Binding of the i-bodies to CXCR4 were examined in a β-Arrestin BRET assay as described in See, Heng B et al (2011) Assay and Drug Development Technologies 9(1):21-30. The i-bodes were examined at ten concentrations with and without 100 nM SDF-1 with the addition of ‘vehicle’ and ‘SDF-1+vehicle’ controls in order to characterise if the i-bodies are agonist or antagonists of CXCR4 activity.

CCR4 = biological target: T1, CCR4 (Homo sapiens, UniProt P51679); experiment: PathHunter (DiscoverX) β-arrestin assay, CCR4; type: cell-based
T1 sequence (P51679 1-360): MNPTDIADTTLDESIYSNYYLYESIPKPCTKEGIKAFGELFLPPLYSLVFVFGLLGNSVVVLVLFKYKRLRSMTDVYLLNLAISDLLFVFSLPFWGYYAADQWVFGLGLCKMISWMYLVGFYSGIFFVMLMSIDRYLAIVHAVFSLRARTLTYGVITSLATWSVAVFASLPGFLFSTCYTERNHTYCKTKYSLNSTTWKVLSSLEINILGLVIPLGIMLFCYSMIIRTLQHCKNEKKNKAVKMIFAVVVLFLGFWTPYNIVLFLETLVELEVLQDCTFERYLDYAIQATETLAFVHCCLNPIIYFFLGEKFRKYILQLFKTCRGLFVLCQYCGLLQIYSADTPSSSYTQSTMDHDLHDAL
Protocol: (FIG. 9) The PathHunter® β-Arrestin assay (DiscoveRx) was performed according to the manufacturer's protocol. Cells were seeded into white walled, 384-well tissue culture-treated microplates (Corning) and normalized at 5,000 cells (or 10,000 cells for CXCR4) in a total volume of […]. Cell growth was at 37° C. (5% CO2, 95% relative humidity). […] Agonists were then added at the EC80 concentration and incubation was continued at 37° C. for 90 min (or 180 min for CCR1). Assay signal was generated through a single addition of 15 μL (50% v/v) of PathHunter Detection reagent cocktail, followed by 1 h incubation at room temperature. Microplates were read following signal generation with a PerkinElmer Envision instrument for chemiluminescent signal detection of relative light units (RLU).

[2] = biological target: T2, human CXCR4 (CXCR4 positive lipoparticles) (Homo sapiens, UniProt P61073); experiment: Biacore SPR kinetic binding to immobilised CXCR4 lipoparticles
T2 construct: purchased Integral Molecular LEV-101B
Protocol: (FIGS. 2A-2C, 5A-5C, 11A-11D, 17A-17B) Kinetic binding analysis of selected i-bodies with immobilized CXCR4 lipoparticles were performed at 25° C. using Biacore T200 instrument (GE Healthcare, Uppsala, Sweden). Streptavidin immobilization was performed in 1×HBS-P+ running buffer (10 mM HEPES, 150 mM NaCl, 0.05% [v/v] Tween-20). […] All binding experiments involving lipoparticles were performed with 1×HBS/BSA (10 mM HEPES, 150 mM NaCl, 1 mg/mL BSA) as instrument running buffer. […] In order to determine binding kinetics, serial dilutions (three-fold) of i-bodies diluted in 1×HBS/BSA were injected over immobilized lipoparticles with the association and dissociation phases monitored for 60 sec and 600 sec, respectively. A control measurement of the instrument running buffer (“zero-buffer” blank) solution was also included for double referencing purposes. Collected experimental data were processed using Scrubber software (www.biologic.com.au). Kinetic parameters (ka=association and kd=dissociation rate constants) and equilibrium dissociation constant (KD=kd/ka) were derived by fitting each set of experimental data to a Langmuir 1:1 binding model. All interaction measurements were performed in triplicate and the derived binding parameters reported as averaged values±standard deviation.

CCL2 and CCL5 protein = experiment: CCL2, CCL5, CXCL12 ELISA of fibroblast conditioned supernatants; type: cell-based, human; conditions: 48 hours
Text: Various reports indicate that CXCR4 signals in conjunction with other chemokine receptors, including CCR2.

[3] = mouse, in vivo, iv, 2 mg/kg
Protocol: A series of blood samples from all mice (0.3 mL, 2 time point/mouse 3/group/time point) were collected following dosing as follows:
For this purpose, each mouse (CD-1 mouse) was bled via the saphenous vein or under isoflurane anaesthesia by cardiac puncture and the samples collected into tubes containing the anticoagulant, K2-EDTA. Tubes were placed on wet ice pending processing. Following its last blood sampling, each animal was euthanized by cervical dislocation and discarded without further examination.
Following collection, the samples were centrifuged (approximately 4° C.) and the resulting plasma was recovered in two separate aliquots and stored frozen (60° C.) in labeled Protein LoBind 1.5 mL tubes (Eppendorf, cat no. 022431081).

[4] = CXCR4 expressed on lipoparticles (Table 4)
[5] = off-rate, CXCR4 expressed on lipoparticles (Table 3)

CXCR4, sequence (P61073 whole entry): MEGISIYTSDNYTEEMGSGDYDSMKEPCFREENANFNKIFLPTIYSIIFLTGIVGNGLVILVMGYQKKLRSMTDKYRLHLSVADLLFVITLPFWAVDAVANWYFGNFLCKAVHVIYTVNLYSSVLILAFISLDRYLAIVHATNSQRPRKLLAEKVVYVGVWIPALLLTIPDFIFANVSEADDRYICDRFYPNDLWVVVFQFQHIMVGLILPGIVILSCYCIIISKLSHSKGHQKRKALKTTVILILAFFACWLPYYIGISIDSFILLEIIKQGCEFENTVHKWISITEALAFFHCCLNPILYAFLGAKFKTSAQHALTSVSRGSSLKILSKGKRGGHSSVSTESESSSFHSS
T2 sequence (P61073 whole entry): as above

Molecule: TN14003
- bleomycin induced pulmonary fibrosis [1]: blocks development of pulmonary fibrosis

Molecule: c1cnc(NCc2ccc(CNc3ncccn3)cc2)nc1 [MSX-122]
- development of pulmonary fibrosis in irradiated mice ([1]; Shu et al 2013): significant reductions in development of pulmonary fibrosis
- bleomycin induced pulmonary fibrosis [1]: completely preventing bleomycin-induced lung fibrosis

Molecule: C/C=C(/C)C(=O)O[C@H]1C(C)=C2[C@H]([C@@H]1OC(=O)CCCCCCC)[C@@](C)(OC(C)=O)C[C@H](OC(=O)CCC)[C@@]1(O)[C@H]2OC(=O)[C@@]1(C)O [Thapsigargin, reference compound]
- induction of apoptosis in Ramos cells (Ramos tumor cells): expected level of apoptosis

B1: ADCX-668: CXCR4 binding i-body, SEQ ID NO: 26 (protein)
chain: LQVDIVPSQGEISVGESKFFLCQVAGTIWYEQISWFTPNGEKLTPNQQRISVVWNDDSSSTLTIYNANIDDAGIYKCVVWTRPVTSSMHEATVNVKIFQ
modifications: protein sequence encoding ADCX-668
- β-arrestin activity (CXCR4): some degree of inhibition

B2: AM5-245: affinity matured CXCR4 i-body, SEQ ID NO: 68 (protein)
chain: LQVDIVPSQGEISVGESKFFLCQAAGSGSHIRISWFSPNGEKLTPNQQRISVVWNDDSSSTLTIYNANIDDAGIYKCVVWRTGGYRHRALVLGEATVNVKIFQ
modifications: protein sequence encoding AM5-245
- IC50 in β-Arrestin BRET assay (Antagonist mode in the presence of 100 nM SDF-1) (CXCR4): ~uM
- CCR4 activity (CCR4): −5%
- Ka [2, 4]: 813000 M⁻¹ s⁻¹ and 771000 M⁻¹ s⁻¹
- dissociation rate constant (kd) [2, 4]: 12100 M⁻¹ s⁻¹ and 12300 M⁻¹ s⁻¹
- dissociation rate constant (kd) [2, 5]: 0.01445

B3: AM3-920: affinity matured CXCR4 i-body, SEQ ID NO: 44 (protein)
chain: B2 chain with A24V, H30G, A89Y
modifications: protein sequence encoding AM3-920
- IC50 in β-Arrestin BRET assay (Antagonist mode in the presence of 100 nM SDF-1) (CXCR4): ~uM
- Ka [2, 4]: 1.117e+06 M⁻¹ s⁻¹ and 1.26e+06 M⁻¹ s⁻¹
- dissociation rate constant (kd) [2, 4]: 8020 M⁻¹ s⁻¹ and 7410 M⁻¹ s⁻¹
- dissociation rate constant (kd) [2, 5]: 0.00817

B4: AM3-523-6H: AM3-523 with 6 His tag, containing the N-terminal sequence EAEA (protein)
chain: EAEALQVDIVPSQGEISVGESKFFLCQVAGSGSHMRISWFSPNGEKLTPNQQRISVVWNDDSSSTLTIYNANIDDAGIYKCVVWRVGGYRHRALVLGEATVNVKIFQ
modifications: left off: small tags and cut ends
- induction of apoptosis in Ramos cells (Ramos tumor cells): strongly induce apoptosis

B5: 21H5-6H: control iBody 21H5 with 6 His tag (protein)
chain: LQVDIVPSQGEISVGESKFFLCQVAGDAKDKDISWFSPNGEKLTPNQQRISVVWNDDSSSTLTIYNANIDDAGIYKCVVTGSDAMSNYSYPISESEATVNVKIFQ
- CCL5 levels in IPF lung fibroblasts (CCL2 and CCL5 protein): observed in one slow-IPF lung fibroblast line

B6: AM3-114-Im7-FH-SA21: dual specificity i-body, AM3-114 with 18-residue HSA binding peptide SA21, SEQ ID NO: 80 (protein)
chain: MALQVDIVPSQGEISVGESKFFLCQVAGSLSGIRISWFSPNGEKLTPNQQRISVVWNDDSSSTLTIYNANIDDAGIYKCVVWRTGGYRHRYLVLGEATVNVKIFQGGGGSELKNSISDYTEAEFVQLLKEIEKENVAATDDVLDVLLEHFVKITEHPDGTDLIYYPSDNRDDSPEGIVKEIKEWRAANGKPGFKQGGGGGSDYKDDDDKGSGHHHHHHHHGGGGSRLIEDICLPRWGCLWEDD
modifications: protein sequence encoding AM3-114-Im7-FH-SA21 dual specificity ibody
- AUC0-T [3]: 25266 ng·h/mL
- Auc0-∞ [3]: 25544 ng·h/mL
- C0 [3]: 23284 ng/mL
- ClTOT [3]: 1.3049 mL/min/kg
- Thalf [3]: 0.95 h
- Tlast [3]: 6.00 h
- VD [3]: 0.107571 L/kg
- λZ [3]: 0.7279 h⁻¹

B7: ADCX-306: CXCR4 binding i-body, SEQ ID NO: 29 (protein)
chain: LQVDIVPSQGEISVGESKFFLCQVAGFQEWVNWFSPNGEKLTPNQQRISVVWNDDSSSTLTIYNANIDDAGIYKCVVTMPHTLNNLDVRTEATVNVKIFQ
modifications: protein sequence encoding ADCX306
- β-arrestin activity (CXCR4): some degree of inhibition
